“And” between values parts separate entries of the source, which are not always exact repeats. Equal values may be shown once.
Molecular target: the molecule itself
Test: native gel or EMSA; native PAGE, ATP form, 0.1 mM CaCl2 and 0.5 mM ATP in the running buffer, 277 K; samples 6.7 µM, immediately and 48 h after purification (stored on ice)

B1: Plasmodium falciparum actin I (natural protein)
chain: not shown
notes: actin I of Plasmodium falciparum, PlasmoDB PF3D7_1246200; also called PfActI; Plasmodium actin I; source: Sf21 cells at 300 K, purified (size exclusion chromatography), alone or as a complex with G1
stoichiometry N: 4 and 12

Source: publication PMC3990709, “Structural Differences Explain Diverse Functions of Plasmodium Actins” (PLoS Pathogens, 2014)
